Assays:
cyno EpCAM [1] = molecular target: cyno EpCAM (cyno); assay: column 'Cyno binding affinity (nM)'; method not stated
cyno EpCAM [2] = molecular target: cyno EpCAM (cyno); assay: ratio of cyno to human binding affinity
human EpCAM = molecular target: T1, human EpCAM (human, UniProt P16422 24-265, limits assumed); assay: column 'Human binding affinity (nM)'; method not stated
T1 sequence (looked up): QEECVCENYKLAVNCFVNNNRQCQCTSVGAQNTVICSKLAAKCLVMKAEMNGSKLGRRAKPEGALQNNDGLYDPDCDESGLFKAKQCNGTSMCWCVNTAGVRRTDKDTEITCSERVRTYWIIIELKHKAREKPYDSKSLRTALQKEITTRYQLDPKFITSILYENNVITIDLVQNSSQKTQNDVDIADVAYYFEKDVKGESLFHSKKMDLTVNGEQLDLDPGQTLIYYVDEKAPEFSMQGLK

| Binder | Kd (cyno EpCAM [1]) [nM] | Cyno/Human cross reactivity (cyno EpCAM [2]) [ratio cyno/human] | Kd (human EpCAM) [nM] |
| --- | --- | --- | --- |
| hVIB-13 (VHH, Tied by label only (hVIB-13 = h13); also called EpCAM h13; sdABD-EpCAM h13) VHH: QVQLVESGGGLVQPGGSLTLSCAASGTGSIFSINLMGWYRQAPGKQRELVARITSGDSTVYADSVKGRFTISRDNSKNTLYLQMNSLRPEDTAVYYCNLLLRSSPGATTPYWGQGTLVTVSS | 12.7 | 4.5 | 2.8 |
| hVIB-23 (VHH, Tied by label only (hVIB-23 = h23); also called EpCAM h23; sdABD-EpCAM h23) VHH: QVQLVESGGGLVQPGGSLTLSCVISGSFSALWAMRWYRQAPGQQRELVASSRGGTTSYADSVKGRFTISRDNSKNTLYLQMNSLRPEDTAVYYCNAIDGHLAYWGQGTLVTVSS | 58.8 | 12.6 | 4.1 |
